35 variants from the Human Domainome abundance scans (Beltran et al. 2025) can be followed below.

± gives the uncertainty stated by the source.

B1: POU domain, class 3, transcription factor 1, residues 247 to 324; numbered along this chain, Q03052 (parent)
chain: EDAPSSDDLEQFAKQFKQRRIKLGFTQADVGLALGTLYGNVFSQTTICRFEALQLSFKNMCKLKPLLNKWLEETDSSS

The variants in the data set derive from B1. The experiment in a line: abundance fitness (aPCA) (normalised: wild type 0, dead -1); higher = more abundant; growth selection in yeast, the domain comes from the species named. The settings on record: Homo sapiens.
For the variant EDAPSSDDLEQFAKQFKQRRIKLGFTQADVGLALGTLYGNVFSQDTICRFEALQLSFKNMCKLKPLLNKWLEETDSSS [T45D], the abundance fitness was 0.254 ± 0.068.
Turning to EDAPSSDDLEQFAKQFKQRRIKLGFTQADVGLALGTLYGNVFSQSTICRFEALQLSFKNMCKLKPLLNKWLEETDSSS [T45S], the abundance fitness is -0.017 ± 0.052.
The value for EDAPSSDDLEQFAKQFKQRRIKLGFTQADVGLALGTLYGNVFSQMTICRFEALQLSFKNMCKLKPLLNKWLEETDSSS [T45M] was -0.205 ± 0.08.
The value for EDAPSSDDLEQFAKQFKQRRIKLGFTQADVGLALGTLYGNVFSQWTICRFEALQLSFKNMCKLKPLLNKWLEETDSSS [T45W] was -0.443 ± 0.075.
The value for EDAPSSDDLEQFAKQFKQRRIKLGFTQADVGLALGTLYGNVFSQCTICRFEALQLSFKNMCKLKPLLNKWLEETDSSS [T45C] was -0.346 ± 0.1; that for EDAPSSDDLEQFAKQFKQRRIKLGFTQADVGLALGTLYGNVFSQPTICRFEALQLSFKNMCKLKPLLNKWLEETDSSS [T45P] was -0.434 ± 0.12; that for EDAPSSDDLEQFAKQFKQRRIKLGFTQADVGLALGTLYGNVFSQQTICRFEALQLSFKNMCKLKPLLNKWLEETDSSS [T45Q] was 0.167 ± 0.075.
EDAPSSDDLEQFAKQFKQRRIKLGFTQADVGLALGTLYGNVFSQRTICRFEALQLSFKNMCKLKPLLNKWLEETDSSS [T45R]: the abundance fitness was determined as 0.016 ± 0.041.
In the case of EDAPSSDDLEQFAKQFKQRRIKLGFTQADVGLALGTLYGNVFSQYTICRFEALQLSFKNMCKLKPLLNKWLEETDSSS [T45Y] it was -0.304 ± 0.28; in that of EDAPSSDDLEQFAKQFKQRRIKLGFTQADVGLALGTLYGNVFSQLTICRFEALQLSFKNMCKLKPLLNKWLEETDSSS [T45L], -0.102 ± 0.055; in that of EDAPSSDDLEQFAKQFKQRRIKLGFTQADVGLALGTLYGNVYSQTTICRFEALQLSFKNMCKLKPLLNKWLEETDSSS [F42Y], 0.048 ± 0.11.
In the case of EDAPSSDDLEQFAKQFKQRRIKLGFTQADVGLALGTLYGNVTSQTTICRFEALQLSFKNMCKLKPLLNKWLEETDSSS [F42T] it was -0.071 ± 0.077; in that of EDAPSSDDLEQFAKQFKQRRIKLGFTQADVGLALGTLYGNVRSQTTICRFEALQLSFKNMCKLKPLLNKWLEETDSSS [F42R], -0.493 ± 0.06.
In the case of EDAPSSDDLEQFAKQFKQRRIKLGFTQADVGLALGTLYGNVWSQTTICRFEALQLSFKNMCKLKPLLNKWLEETDSSS [F42W] it was -0.191 ± 0.065; in that of EDAPSSDDLEQFAKQFKQRRIKLGFTQADVGLALGTLYGNVSSQTTICRFEALQLSFKNMCKLKPLLNKWLEETDSSS [F42S], -0.365 ± 0.071; in that of EDAPSSDDLEQFAKQFKQRRIKLGFTQADVGLALGTLYGNVVSQTTICRFEALQLSFKNMCKLKPLLNKWLEETDSSS [F42V], 0.064 ± 0.045.
For EDAPSSDDLEQFAKQFKQRRIKLGFTQADVGLALGTLYGNVFSNTTICRFEALQLSFKNMCKLKPLLNKWLEETDSSS [Q44N], the abundance fitness stood at 0.01 ± 0.084.
With EDAPSSDDLEQFAKQFKQRRIKLGFTQADVGLALGTLYGNVFSYTTICRFEALQLSFKNMCKLKPLLNKWLEETDSSS [Q44Y], the abundance fitness is -0.266 ± 0.15.
The value for EDAPSSDDLEQFAKQFKQRRIKLGFTQADVGLALGTLYGNVFSSTTICRFEALQLSFKNMCKLKPLLNKWLEETDSSS [Q44S] was 0.025 ± 0.055; that for EDAPSSDDLEQFAKQFKQRRIKLGFTQADVGLALGTLYGNVFSGTTICRFEALQLSFKNMCKLKPLLNKWLEETDSSS [Q44G] was 0.03 ± 0.038; that for EDAPSSDDLEQFAKQFKQRRIKLGFTQADVGLALGTLYGNVFSETTICRFEALQLSFKNMCKLKPLLNKWLEETDSSS [Q44E] was 0.266 ± 0.05.
On to EDAPSSDDLEQFAKQFKQRRIKLGFTQADVGLALGTLYGNVFSPTTICRFEALQLSFKNMCKLKPLLNKWLEETDSSS [Q44P], for which the abundance fitness was determined as 0.132 ± 0.064.
The value for EDAPSSDDLEQFAKQFKQRRIKLGFTQADVGLALGTLYGNVFSKTTICRFEALQLSFKNMCKLKPLLNKWLEETDSSS [Q44K] was 0.041 ± 0.063.
The value for EDAPSSDDLEQFAKQFKQRRIKLGFTQADVGLALGTLYGNVFSMTTICRFEALQLSFKNMCKLKPLLNKWLEETDSSS [Q44M] was -0.262 ± 0.085; that for EDAPSSDDLEQFAKQFKQRRIKLGFTQADVGLALGTLYGNVFSFTTICRFEALQLSFKNMCKLKPLLNKWLEETDSSS [Q44F] was -0.323 ± 0.14.
In the case of EDAPSSDDLEQFAKQFKQRRIKLGFTQADVGLALGTLYGNVFSHTTICRFEALQLSFKNMCKLKPLLNKWLEETDSSS [Q44H] it was -0.046 ± 0.11; in that of EDAPSSDDLEQFAKQFKQRRIKLGFTQADVGLALGTLYGNVFSLTTICRFEALQLSFKNMCKLKPLLNKWLEETDSSS [Q44L], -0.502 ± 0.069.
Consider EDAPSSDDLEQFAKQFKQRRIKLGFTQADVGLALGTLYGNVFSRTTICRFEALQLSFKNMCKLKPLLNKWLEETDSSS [Q44R], for which the abundance fitness is -0.067 ± 0.044.
In the case of EDAPSSDDLEQFAKQFKQRRIKLGFTQADVGLALGTLYGNVFSATTICRFEALQLSFKNMCKLKPLLNKWLEETDSSS [Q44A] it was 0.119 ± 0.047; in that of EDAPSSDDLEQFAKQFKQRRIKLGFTQADVGLALGTLYGNVFSITTICRFEALQLSFKNMCKLKPLLNKWLEETDSSS [Q44I], -0.472 ± 0.14; in that of EDAPSSDDLEQFAKQFKQRRIKLGFTQADVGLALGTLYGNVFSCTTICRFEALQLSFKNMCKLKPLLNKWLEETDSSS [Q44C], -0.515 ± 0.12.
The value for EDAPSSDDLEQFAKQFKQRRIKLGFTQADVGLALGTLYGNVFSVTTICRFEALQLSFKNMCKLKPLLNKWLEETDSSS [Q44V] was -0.209 ± 0.053.
The value for EDAPSSDDLEQFAKQFKQRRIKLGFTQADVGLALGTLYGNVFSTTTICRFEALQLSFKNMCKLKPLLNKWLEETDSSS [Q44T] was 0.118 ± 0.064; that for EDAPSSDDLEQFAKQFKQRRIKLGFTQADVGLALGTLYGNVFSWTTICRFEALQLSFKNMCKLKPLLNKWLEETDSSS [Q44W] was -0.55 ± 0.095.
For the variant EDAPSSDDLEQFAKQFKQRRIKLGFTQADVGLALGTLYGNVFSDTTICRFEALQLSFKNMCKLKPLLNKWLEETDSSS [Q44D], the abundance fitness is 0.195 ± 0.077.
